The target in assay [1] is murine IGF-1R(1-903)-Fc (murine; human) (UniProt Q60751). Kind of assay: SPR, Fab over receptor-Fc captured on M13-C06 surface. (In SPR one partner is held on a chip, and binding of the other changes the refractive index at the surface.)
Assay [2] has the same target. As to the kind of experiment: SPR.

This note sets out measurements from US20090092614A1.

Sequence of murine IGF-1R(1-903)-Fc (murine; human) (Q60751 31-933 limits assumed, form in doubt): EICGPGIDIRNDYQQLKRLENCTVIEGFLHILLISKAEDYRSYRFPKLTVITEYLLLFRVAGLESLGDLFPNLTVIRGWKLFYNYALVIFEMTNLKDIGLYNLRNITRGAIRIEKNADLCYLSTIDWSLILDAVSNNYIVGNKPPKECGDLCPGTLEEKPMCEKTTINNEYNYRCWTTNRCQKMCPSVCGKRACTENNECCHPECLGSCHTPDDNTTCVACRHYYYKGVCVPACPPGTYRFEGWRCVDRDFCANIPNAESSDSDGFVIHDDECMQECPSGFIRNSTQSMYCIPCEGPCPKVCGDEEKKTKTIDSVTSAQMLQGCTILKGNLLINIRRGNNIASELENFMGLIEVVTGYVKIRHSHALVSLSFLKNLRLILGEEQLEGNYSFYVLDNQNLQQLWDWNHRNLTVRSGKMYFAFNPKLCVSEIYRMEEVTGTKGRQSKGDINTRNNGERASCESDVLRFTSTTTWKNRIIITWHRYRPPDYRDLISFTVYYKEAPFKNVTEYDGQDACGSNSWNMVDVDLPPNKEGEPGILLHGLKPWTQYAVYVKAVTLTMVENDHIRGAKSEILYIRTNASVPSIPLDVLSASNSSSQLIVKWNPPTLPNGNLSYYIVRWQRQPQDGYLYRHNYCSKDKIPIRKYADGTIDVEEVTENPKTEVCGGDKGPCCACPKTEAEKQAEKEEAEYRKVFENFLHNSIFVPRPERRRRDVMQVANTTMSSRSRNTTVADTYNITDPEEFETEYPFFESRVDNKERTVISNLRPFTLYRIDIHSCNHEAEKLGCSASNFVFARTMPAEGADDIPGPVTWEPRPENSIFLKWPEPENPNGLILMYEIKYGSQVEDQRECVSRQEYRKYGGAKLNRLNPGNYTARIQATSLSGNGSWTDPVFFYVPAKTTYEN

B1: M13-C06 Fab (Fab, V domains shown)
VH: EVQLLESGGGLVQPGGSLRLSCAASGFTFSIYRMQWVRQAPGKGLEWVSGISPSGGTTWYADSVKGRFTISRDNSKNTLYLQMNSLRAEDTAVYYCARWSGGSGYAFDIWGQGTMVTVSS
VL: DIQMTQSPLSLSASVGDRVTITCQASRDIRNYLNWYQQKPGKAPKLLIYDASSLQTGVPSRFGGSGSGTDFSFTIGSLQPEDIATYYCQQFDSLPHTFGQGTKLEIK
In assay [1], B1 gave a Biacore Relative RUmax of 0. The fold decrease in binding against human IGF-1R in assay [2] was determined as 100 fold.
